Source: patent US20120100134A1, “GENETIC VARIANTS IN ANGIOGENESIS PATHWAY ASSOCIATED WITH CLINICAL OUTCOME” (University of Southern California, priority 2009, published 2012)

Test system: advanced NSCLC patients
Assay: Toxicity: grade3-4 hypertension versus genotype, E4599 subset
Assay type: in vivo, human
Settings: bevacizumab arm
Source text: The problem, however, is that there is hardly any power to do this. There were a total of 30 cases on E4599 who reported grade3-4 hypertension of any attribution type on this study. Once these cases are merged with the correlatives dataset, there is an overlap of only 7 hypertension cases in the correlative study. The distribution of hypertension versus genotype for these VEGF polymorphisms, as well as the WNK1 polymorphisms is as follows: […]

## Bevacizumab
VEGF634 CC
  HTN (number of patients, grade3-4 hypertension): 1
  No HTN (number of patients): 10
VEGF634 GC
  HTN (number of patients, grade3-4 hypertension): 0
VEGF634 GG
  HTN (number of patients, grade3-4 hypertension): 6
VEGF1498 CC
  No HTN (number of patients): 18
VEGF1498 CT
  HTN (number of patients, grade3-4 hypertension): 1
  No HTN (number of patients): 21
VEGF1498 TT
  No HTN (number of patients): 17
WNK1-2158501 GG (so in the source)
  HTN (number of patients, grade3-4 hypertension): 1
WNK1-2158501 TT (so in the source)
  No HTN (number of patients): 18
WNK1-110644560 GG
  HTN (number of patients, grade3-4 hypertension): 0
  No HTN (number of patients): 7
WNK1-110644560 GT
  HTN (number of patients, grade3-4 hypertension): 1
WNK1-110644560 TT
  HTN (number of patients, grade3-4 hypertension): 6
  No HTN (number of patients): 18
